# Measurements reported in IntAct's records for PubMed 18547396.
# B1: Protein TIFY 7 (Arabidopsis thaliana (Mouse-ear cress)), Q8W4J8 (parent)
# chain: MERDFLGLSDKQYLSNNVKHEVNDDAVEERGLSTKAAREWGKSKVFATSSFMPSSDFQEAKAFPGAYQWGSVSAANVFRRCQFGGAFQNATPLLLGGSVPLPTHPSLVPRVASSGSSPQLTIFYGGTISVFNDISPDKAQAIMLCAGNGLKGETGDSKPVREAERMYGKQIHNTAATSSSSATHTDNFSRCRDTPVAATNAMSMIESFNAAPRNMIPSVPQARKASLARFLEKRKERLMSAMPYKKMLLDLSTGESSGMNYSSTSPT
# partner: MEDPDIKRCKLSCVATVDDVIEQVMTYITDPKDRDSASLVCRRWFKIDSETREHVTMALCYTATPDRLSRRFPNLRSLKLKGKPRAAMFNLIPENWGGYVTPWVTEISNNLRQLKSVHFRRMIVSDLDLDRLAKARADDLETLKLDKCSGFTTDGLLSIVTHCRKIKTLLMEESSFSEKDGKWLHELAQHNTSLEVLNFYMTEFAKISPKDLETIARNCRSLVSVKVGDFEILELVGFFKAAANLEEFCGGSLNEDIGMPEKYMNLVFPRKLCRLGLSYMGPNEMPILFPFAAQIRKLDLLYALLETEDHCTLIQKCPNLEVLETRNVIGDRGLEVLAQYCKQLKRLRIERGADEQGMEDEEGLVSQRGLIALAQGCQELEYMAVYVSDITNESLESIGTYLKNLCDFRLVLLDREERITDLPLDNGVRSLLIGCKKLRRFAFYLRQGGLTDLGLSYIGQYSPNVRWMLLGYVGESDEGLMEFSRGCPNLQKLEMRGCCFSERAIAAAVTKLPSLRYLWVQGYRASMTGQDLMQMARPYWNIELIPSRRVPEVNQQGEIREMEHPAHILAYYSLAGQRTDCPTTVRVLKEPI
# B2: Protein TIFY 10A (Arabidopsis thaliana (Mouse-ear cress)), Q9LMA8 (parent)
# chain: MSSSMECSEFVGSRRFTGKKPSFSQTCSRLSQYLKENGSFGDLSLGMACKPDVNGTLGNSRQPTTTMSLFPCEASNMDSMVQDVKPTNLFPRQPSFSSSSSSLPKEDVLKMTQTTRSVKPESQTAPLTIFYAGQVIVFNDFSAEKAKEVINLASKGTANSLAKNQTDIRSNIATIANQVPHPRKTTTQEPIQSSPTPLTELPIARRASLHRFLEKRKDRVTSKAPYQLCDPAKASSNPQTTGNMSWLGLAAEI
# partner: B1 partner
# Variants of: B1
# Conditions: with coi1_arath COI1, O04197
row,effect of a mutation on the interaction,Variant
1,disrupting interaction,R223A;K224A
2,disrupting interaction,K224A
3,disrupting interaction,R223A

# Variants of: B2
# Conditions: with coi1_arath COI1, O04197
row,effect of a mutation on the interaction,Variant
1,disrupting interaction,R205A
2,disrupting interaction,R205A;R206A
3,disrupting interaction,R206A
